Measurements published in the supplement of paper PMC10899765.

Experiments:
Conditions in all cases: 20 nM; 72 h
[1] = test system: MCF10A; assay: percent viability (nuclei count relative to siNT); higher = more viable cells
Experimental: (§1)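 After 72 h, cells were fixed and stained with Hoechst and anti-fibrillarin, and nucleoli per nucleus were counted with CellProfiler. Values are plate-adjusted percent effect for the one-nucleolus and 5+ nucleoli phenotypes, normalised to siNT (0%) and to the positive controls siNOL11 or siKIF11 (100%), as the mean of biological triplicates. Percent viability is the nuclei count relative to siNT.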

[2] = test system: MCF10A; assay: 5+ nucleoli phenotype percent effect (relative to siNT 0% and siKIF11 100%); higher = more cells with five or more nucleoli
Experimental: as §1

[3] = test system: MCF10A; assay: one-nucleolus phenotype percent effect (relative to siNT 0% and siNOL11 100%); higher = more cells with one nucleolus (ribosome biogenesis inhibition)
Experimental: as §1

Sequence | percent viability [1] | 5+ nucleoli phenotype percent effect [2] | one-nucleolus phenotype percent effect [3]
GCGCUGACCCGCCUUCUCCGCA [hsa-miR-6825-3p] | 108% | 45.7% | -15%
GCGGAAGGCGGAGCGGCGGA [hsa-miR-6125] | 155% | 25.5% | -24.1%
GCGGAGAGAGAAUGGGGAGC [hsa-miR-5739] | 110% | 53.5% | -16.4%
GCGGGGCUGGGCGCGCG [hsa-miR-4508] | 90.5% | 29.5% | -26.4%
GCGGGGGUGGCGGCGGCAUCCC [hsa-miR-4787-5p] | 86.7% | 25.2% | -21.5%
GCGGUGAUCCCGAUGGUGUGAGC [hsa-miR-598-5p] | 93.1% | 32.8% | -24%
GCGGUGGGGCCGGAGGGGCGU [hsa-miR-6786-5p] | 96.7% | 31.9% | -24.9%
GCUAAGGAAGUCCUGUGCUCAG [hsa-miR-4521] | 83.7% | 34.9% | -19.3%
GCUACUUCACAACACCAGGGCC [hsa-miR-138-1-3p] | 112% | 30.5% | -15.7%
GCUAGUCCUGACUCAGCCAGU [hsa-miR-554] | 67.7% | 10.2% | -12.9%
GCUAUUUCACGACACCAGGGUU [hsa-miR-138-2-3p] | 43.1% | -22.8% | 4.26%
GCUCAGGGAUGAUAACUGUGCUGAGA [hsa-miR-4518] | 55.6% | 31.9% | -10.2%
GCUCAUCCCCAUCUCCUUUCAG [hsa-miR-6870-3p] | 115% | 36.6% | -31.1%
GCUCCCUCUAGGGUCGCUCGGA [hsa-miR-4469] | 67.3% | 66% | -24.8%
GCUCGGACUGAGCAGGUGGG [hsa-miR-3917] | 57.6% | 32.5% | -20.1%
GCUCUGACGAGGUUGCACUACU [hsa-miR-301b-5p] | 60.8% | 15.2% | -22.6%
GCUCUGACUUUAUUGCACUACU [hsa-miR-301a-5p] | 68.8% | 59.9% | -23.6%
GCUGAACUGGGCUGAGCUGGGC [hsa-miR-4539] | 87% | -5.15% | -1.34%
GCUGACAGCAGGGCUGGCCGCU [hsa-miR-4526] | 59.2% | 16.9% | -0.679%
GCUGACUCCUAGUCCAGGGCUC [hsa-miR-345-5p] | 100% | 31.9% | -8.97%

Sequence | percent viability [1] | 5+ nucleoli phenotype percent effect [2] | one-nucleolus phenotype percent effect [3]
GCUGAUGAUGAUGGUGCUGAAG [hsa-miR-4502] | 85.3% | 38.7% | -19.2%
GCUGCACCGGAGACUGGGUAA [hsa-miR-3130-3p] | 65% | 26.7% | -5.32%
GCUGCGCUUGGAUUUCGUCCCC [hsa-miR-191-3p] | 71% | 5.48% | 5.27%
GCUGCGGGCUGCGGUCAGGGCG [hsa-miR-4734] | 40.7% | 8.16% | -5.38%
GCUGGGAAGGCAAAGGGACGU [hsa-miR-204-3p] | 49.7% | 24.5% | -9.16%
GCUGGGAUUACAGGCAUGAGCC [hsa-miR-619-5p] | 50% | 19% | -9.05%
GCUGGGCAGGGCUUCUGAGCUCCUU [hsa-miR-612] | 77.6% | -7.01% | 14.9%
GCUGGGCGAGGCUGGCA [hsa-miR-4486] | 38.6% | 3.78% | 19.5%
GCUGGUCUGCGUGGUGCUCGG [hsa-miR-3663-5p] | 123% | 52.4% | -23.3%
GCUGGUGACAUGAGAGGC [hsa-miR-4299] | 42.6% | 34.1% | -5.58%
GCUGGUGCAAAAGUAAUGGCGG [hsa-miR-548q] | 30.5% | -16.7% | 46%
GCUGGUUUCAUAUGGUGGUUUAGA [hsa-miR-29b-1-5p] | 100% | 38.2% | -17.6%
GCUUCUGUAGUGUAGUC [hsa-miR-3182] | 57% | 35.6% | -17.1%
GCUUGUCGCUGCGGUGUUGCU [hsa-miR-3655] | 65.9% | -7.75% | 29.1%
GGACCCACCCGGCCGGGAAUA [hsa-miR-1180-5p] | 75.2% | 38.4% | -33.8%
GGAGAAAUUAUCCUUGGUGUGU [hsa-miR-539-5p] | 55.7% | 17.9% | -14.8%
GGAGACUGAUGAGUUCCCGGGA [hsa-miR-873-3p] | 106% | -5.61% | -6.55%
GGAGAUGGAGGUUGCAGUG [hsa-miR-1273f] | 62.9% | 1.46% | 20.3%
GGAGGAACCUUGGAGCUUCGGC [hsa-miR-3928] | 50% | 45.7% | -14.5%
GGAGGCCGGGGUGGGGCGGGGCGG [hsa-miR-6089] | 153% | 53% | -25.7%

Sequence | percent viability [1] | 5+ nucleoli phenotype percent effect [2] | one-nucleolus phenotype percent effect [3]
GGAGGCGCAGGCUCGGAAAGGCG [hsa-miR-3197] | 41.9% | 13.6% | -2.74%
GGAGGGGUCCCGCACUGGGAGG [hsa-miR-1914-3p] | 126% | 46.6% | -23.7%
GGAGGUUGGGAAGGGCAGAG [hsa-miR-6086] | 69.1% | 0.449% | -8.13%
GGAGUGGGCUGGUGGUU [hsa-miR-4481] | 37.8% | 6.11% | 5.61%
GGAUAUCAUCAUAUACUGUAAG [hsa-miR-144-5p] | 54.5% | 2.47% | -0.41%
GGAUCCGAGUCACGGCACCA [hsa-miR-4454] | 56% | 0.148% | -14.9%
GGAUGGAGGAGGGGUCU [hsa-miR-4534] | 46.8% | 31% | -5.6%
GGAUGGUUGGGGGCGGUCGGCGU [hsa-miR-8069] | 33.5% | -16.7% | 28.5%
GGAUUCCUGGAAAUACUGUUCU [hsa-miR-145-3p] | 55.6% | -19.5% | 9.95%
GGCAGGAGGGCUGUGCCAGGUUG [hsa-miR-4722-5p] | 60.5% | 13.5% | -6.08%
GGCAGGUUCUCACCCUCUCUAGG [hsa-miR-657] | 44.7% | 15.8% | 4.3%
GGCCACUGAGUCAGCACCA [hsa-miR-4252] | 46.1% | 5.41% | -3.69%
GGCCUUGUUCCUGUCCCCA [hsa-miR-4312] | 22.7% | -25.8% | 56%
GGCGCGCCCAGCUCCCGGGCU [hsa-miR-4783-5p] | 90.3% | 28% | -16.4%
GGCGGAGGGAAGUAGGUCCGUUGGU [hsa-miR-658] | 63% | 5.47% | -9.25%
GGCGGCGGCGGAGGCGGGGG [hsa-miR-3960] | 47.6% | -17.5% | 26.8%
GGCGGCGGGGAGGUAGGCAG [hsa-miR-8072] | 49.8% | -2.29% | -6.87%
GGCGGGUGCGGGGGUGG [hsa-miR-3656] | 148% | 37.2% | -15.8%
GGCUACAACACAGGACCCGGGC [hsa-miR-187-5p] | 136% | 15.6% | -18.2%
GGCUAGCAACAGCGCUUACCU [hsa-miR-621] | 51.6% | -15.8% | 15.2%
